In US20190345459A1 (YEDA RESEARCH AND DEVELOPMENT, published 2019):

Tests used:
[1] = molecular target: T1, tetravalent scaffoldin ScafCA(CBM)TF (SEQ ID No. 5); test: electrophoretic mobility on non-denaturing PAGE, equimolar enzymes and scaffoldin
T1 chain: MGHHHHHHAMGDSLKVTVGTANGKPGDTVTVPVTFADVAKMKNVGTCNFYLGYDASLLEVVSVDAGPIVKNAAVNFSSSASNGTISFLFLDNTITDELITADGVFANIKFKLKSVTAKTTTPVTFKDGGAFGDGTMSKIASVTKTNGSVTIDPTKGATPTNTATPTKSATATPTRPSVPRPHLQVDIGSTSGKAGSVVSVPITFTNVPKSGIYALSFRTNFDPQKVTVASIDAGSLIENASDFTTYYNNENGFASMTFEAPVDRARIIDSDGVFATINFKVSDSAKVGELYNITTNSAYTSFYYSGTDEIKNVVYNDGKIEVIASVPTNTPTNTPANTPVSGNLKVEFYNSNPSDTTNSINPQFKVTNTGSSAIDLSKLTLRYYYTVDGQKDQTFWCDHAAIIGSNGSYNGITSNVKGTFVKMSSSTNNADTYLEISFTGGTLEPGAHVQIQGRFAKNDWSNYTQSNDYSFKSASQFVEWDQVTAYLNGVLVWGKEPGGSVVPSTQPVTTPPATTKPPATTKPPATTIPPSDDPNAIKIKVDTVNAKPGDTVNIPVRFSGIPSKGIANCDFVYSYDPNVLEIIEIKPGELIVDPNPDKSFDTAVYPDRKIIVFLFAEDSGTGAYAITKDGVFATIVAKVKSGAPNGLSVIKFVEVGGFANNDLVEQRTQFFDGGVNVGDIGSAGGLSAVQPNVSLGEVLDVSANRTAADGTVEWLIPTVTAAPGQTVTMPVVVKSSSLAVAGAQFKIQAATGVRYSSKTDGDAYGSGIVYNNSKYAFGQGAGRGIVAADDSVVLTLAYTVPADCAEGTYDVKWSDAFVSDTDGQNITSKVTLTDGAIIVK

[2] = molecular target: T2, C. thermocellum cohesin 3 from CipA (Clostridium thermocellum, UniProt Q06851 560-704); test: affinity-based ELISA, cohesin-dockerin binding
T2 construct: domain: cohesin 3; also called cohesin T
T2 sequence: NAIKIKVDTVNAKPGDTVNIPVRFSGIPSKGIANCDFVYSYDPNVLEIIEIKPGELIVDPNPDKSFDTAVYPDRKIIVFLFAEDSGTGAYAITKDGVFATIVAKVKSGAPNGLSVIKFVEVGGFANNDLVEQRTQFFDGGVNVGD

B1: f-5A (SEQ ID No. 2) (enzyme)
chain: MAHHHHHHAPSPGTKLVPTWGDTNCDGVVNVADVVVLNRFLNDPTYSNITDQGKVNADVVDPQDKSGAAVDPAGVKLTVADSEAILKAIVELITLPQAVPGTQPGTGTPVERYGKVQVCGTQLCDEHGNPVQLRGMSTHGIQWFDHCLTDSSLDALAYDWKADIIRLSMYIQEDGYETNPRGFTDRMHQLIDMATARGLYVIVDWHILTPGDPHYNLDRAKTFFAEIAQRHASKTNVLYEIANEPNGVSWASIKSYAEEVIPVIRQRDPDSVIIVGTRGWSSLGVSEGSGPAEIAANPVNASNIMYAFHFYAASHRDNYLNALREASELFPVFVTEFGTETYTGDGANDFQMADRYIDLMAERKIGWTKWNYSDDFRSGAVFQPGTCASGGPWSGSSLKASGQWVRSKLQS
- binding result [1]: binds

B2: t-48A (SEQ ID No. 4) (enzyme)
chain: MAHHHHHHAVESSSTGLGDLNGDGNINSSDLQALKRHLLGISPLTGEALLRADVNRSGKVDSTDYSVLKRYILRIITEVPGHDSAEVTVREIDPNTSSYDQAFLEQYEKIKDPASGYFREFNGLLVPYHSVETMIVEAPDHGHQTTSEAFSYYLWLEAYYGRVTGDWKPLHDAWESMETFIIPGTKDQPTNSAYNPNSPATYIPEQPNADGYPSPLMNNVPVGQDPLAQELSSTYGTNEIYGMHWLLDVDNVYGFGFCGDGTDDAPAYINTYQRGARESVWETIPHPSCDDFTHGGPNGYLDLFTDDQNYAKQWRYTNAPDADARAVQVMFWAHEWAKEQGKENEIAGLMDKASKMGDYLRYAMFDKYFKKIGNCVGATSCPGGQGKDSAHYLLSWYYSWGGSLDTSSAWAWRIGSSSSHQGYQNVLAAYALSQVPELQPDSPTGVQDWATSFDRQLEFLQWLQSAEGGIAGGATNSWKGSYDTPPTGLSQFYGMYYDWQPVWNDPPSNNWFGFQVWNMERVAQLYYVTGDARAEAILDKWVPWAIQHTDVDADNGGQNFQVPSDLEWSGQPDTWTGTYTGNPNLHVQVVSYSQDVGVTAALAKTLMYYAKRSGDTTALATAEGLLDALLAHRDSIGIATPEQPSWDRLDDPWDGSEGLYVPPGWSGTMPNGDRIEPGATFLSIRSFYKNDPLWPQVEAHLNDPQNVPAPIVERHRFWAQVEIATAFAAHDELFGAGAP
- binding result [1]: binds

B3: Xyn-c-Lac (SEQ ID No. 1), chimeric bifunctional xylanase-dockerin-laccase (enzyme)
chain: MGSSHHHHHHKNADSYAKKPHISALNAPQLDQRYKNEFTIGAAVEPYQLQNEKDVQMLKRHFNSIVAENVMKPISIQPEEGKFNFEQADRIVKFAKANGMDIRFHTLVWHSQVPQWFFLDKEGKPMVNETDPVKREQNKQLLLKRLETHIKTIVERYKDDIKYWDVVNEVVGDDGKLRNSPWYQIAGIDYIKVAFQAARKYGGDNIKLYMNDYNTEVEPKRTALYNLVKQLKEEGVPIDGIGHQSHIQIGWPSEAEIEKTINMFAALGLDNQITELDVSMYGWPPRAYPTYDAIPKQKFLDQAARYDRLFKLYEKLSDKISNVTFWGIADNHTWLDSRADVYYDANGNVVVDPNAPYAKVEKGKGKDAPFVFGPDYKVKPAYWAIIDHKSAGENLYFQGTSPVIVYGDYNNDGNVDALDFAGLKKYIMAADHAYVKNLDVNLDNEVNAFDLAILKKYLLGMVSKLPSQDPNSVTGTVVELAPGIHAGFTGRAGGVSGEPYATLNLGDHVGDDPAAVAENRRRAALGFGISPDRVVWMNQVHGATAVTVTGSGQAGDVDAVVTPEAGLALAVLVADCLPLLVADAAAGVIGAAHAGRPGMAAGVVPALVAEMARHGARPERCVALLGPAICGRCYEVPRDLQDRVARTVPEARCTTAEGTPGLDIRAGVTAQLTNLGVTNITHDSRCTRESADLFSYRRDATTGRFAGYVWRVP
notes: Recombinant, expressed in E. coli, His-tagged; also called xylanase-tagged laccase; bifunctional xylanase-laccase
- binding result [2]: no binding

B4: Xyn11V-a (SEQ ID No. 3) (enzyme)
chain: MHHHHHHDVVITSNQTGTHGGYNFEYWKDTGNGTMVLKDGGAFSCEWSNINNILFRKGFKYDETKTHDQLGYITVTYSCNYQPNGNSYLGVYGWTSNPLVEYYIIESWGTWRPPGATPKGTITVDGGTYEIYETTRVNQPSIKGTATFQQYWSVRTSKRTSGTISVTEHFKAWERLGMKMGKMYEVALVVEGYQSSGKADVTSMTITVGNAPSTSSPPGPTPEPTPRSAFSKIEAEEYNSLKSSTIQTIGTSDGGSGIGYIESGDYLVFNKINFGNGANSFKARVASGADTPTNIQLRLGSPTGTLIGTLTVASTGGWNNYEEKSCSITNTTGQHDLYLVFSGPVNIDYFIFDSKGVNPTPTPTSTTTPTPKFIYGDVDGNGSVRINDAVLIRDYVLGKINEFPYEYGMLAADVDGNGSIKINDAVLVRDYVLGKIFLFPVEEKEELEHHHHHH
- binding result [1]: binds
